Results as given in paper PMC10663608.

Molecular target: human EGFR tagged with mTurquoise at the C-terminus (EGFR-mTurquoise) (human) (UniProt P00533)

In the case of “EGF ligand from mouse labeled with rhodamine at its N-terminus (rho-mEGF)”, the K (resp) of the transducer function for Y1068 phosphorylation (phosphorylation against ligand-bound EGFR fraction in single vesicles) (fraction of ligand-bound receptors) is reported as 0.4 and the K (resp) of the transducer function for Y1173 phosphorylation (phosphorylation against ligand-bound EGFR fraction in single vesicles) (fraction of ligand-bound receptors) is reported as 0.86.
